For experiment [1], the target named is FcgammaRIIB (CD32b) (human) (UniProt P31994). Briefly: SPR equilibrium fit; reference WT IgG1.
Experiment [2] addresses FcgammaRIIIA (CD16a), F allotype (human) (UniProt P08637). Put plainly: SPR equilibrium fit; reference WT IgG1.

Chain of FcgammaRIIIA (CD16a), F allotype (human) (P08637 17-208 limits assumed): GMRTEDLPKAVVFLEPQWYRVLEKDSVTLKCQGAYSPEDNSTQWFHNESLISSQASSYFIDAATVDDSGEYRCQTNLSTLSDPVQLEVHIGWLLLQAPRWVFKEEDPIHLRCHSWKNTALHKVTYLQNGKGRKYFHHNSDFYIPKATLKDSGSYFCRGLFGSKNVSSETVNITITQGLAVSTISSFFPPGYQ
Chain of FcgammaRIIB (CD32b) (human) (P31994 43-217 limits assumed): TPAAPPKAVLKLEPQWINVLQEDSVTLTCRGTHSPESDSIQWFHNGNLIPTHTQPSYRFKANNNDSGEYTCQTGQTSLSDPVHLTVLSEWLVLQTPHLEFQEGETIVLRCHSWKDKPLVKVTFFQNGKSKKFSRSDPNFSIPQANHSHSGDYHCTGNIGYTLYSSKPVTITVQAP

“Control 1 (K409D_K392D/D399K_D356K) (antibody)”: the Ratio WT/Variant of kD in experiment [1] was 1.68; in experiment [2], 1.28.

As to “Control 2 (T366S_L368A_Y407V/T366W) (antibody)”, the Ratio WT/Variant of kD in experiment [1] stood at 1.13; in experiment [2], 1.1.
